Reference: PMC6599971

Tests used:
[1] = target: N-terminally 6×His-tagged FilP expressed in E. coli (Streptomyces coelicolor); test: ultracentrifugation sedimentation assay; His-N-FilP 200 μg/ml dialysed against 50 mM Tris-HCl pH 6.8 with 1 M NaCl; 135,000-300,000g, 15-30 min, 25°C
[2] = target: N-terminally 6×His-tagged FilP expressed in E. coli (Streptomyces coelicolor); test: ultracentrifugation sedimentation assay; His-N-FilP 200 μg/ml dialysed against 50 mM Tris-HCl pH 6.8 with 5 mM MgCl2; 135,000-300,000g, 15-30 min, 25°C
[3] = target: N-terminally 6×His-tagged FilP expressed in E. coli (Streptomyces coelicolor); test: ultracentrifugation sedimentation assay; His-N-FilP 200 μg/ml dialysed against Tris pH 8.8; 135,000-300,000g, 15-30 min, 25°C
[4] = target: N-terminally 6×His-tagged FilP expressed in E. coli (Streptomyces coelicolor); test: ultracentrifugation sedimentation assay; His-N-FilP 200 μg/ml dialysed against 50 mM Tris-HCl pH 6.8 with 0.2 M KCl and 1 M NaCl; 135,000-300,000g, 15-30 min, 25°C
[5] = target: N-terminally 6×His-tagged FilP expressed in E. coli (Streptomyces coelicolor); test: ultracentrifugation sedimentation assay; His-N-FilP 200 μg/ml dialysed against 50 mM Tris-HCl pH 6.8 with 0.2 M KCl; 135,000-300,000g, 15-30 min, 25°C
[6] = target: N-terminally 6×His-tagged FilP expressed in E. coli (Streptomyces coelicolor); test: ultracentrifugation sedimentation assay; His-N-FilP 200 μg/ml dialysed against 50 mM Tris-HCl pH 6.8 with 1 M NaCl; 135,000-300,000g, 15-30 min, 25°C; remark: listed apart in the source
[7] = target: N-terminally 6×His-tagged FilP expressed in E. coli (Streptomyces coelicolor); test: turbidity (light scattering at 350 nm); His-N-FilP at 20-200 μg/ml dialysed against Tris assembly buffer; 96-well plate

N-terminally 6×His-tagged FilP expressed in E. coli (natural protein)
percent of added protein recovered in the supernatant after ultracentrifugation [1]: 40% | percent of added protein recovered in the supernatant after ultracentrifugation [2]: 11% | percent of total FilP soluble (in the supernatant after ultracentrifugation) [3]: 32% | percent of added protein recovered in the supernatant after ultracentrifugation [4]: 63% | percent of added protein recovered in the supernatant after ultracentrifugation [5]: 25% | percent of added protein recovered in the supernatant after ultracentrifugation [6]: 35% | critical concentration for filamentation [7]: 33 µg/mL
